Where two headings read alike, the source gives them in different places.
Columns and labels:
human CD47 on cells [1] = target: T1, human CD47 on cells (human, UniProt Q08722 19-323); assay: flow cytometry on human red blood cells
T1 construct: also called CHO-K1/huCD47; human CD47 over-expressed in CHO-K1 cells

[2] = target: T2, cynomolgus monkey CD47 on CHO-K1 cells (cynomolgus monkey, UniProt A0A5F8AK49 19-323 (rhesus entry)); assay: flow cytometry on CHO-K1/cyno CD47 cells; unit taken from the axis
T2 construct: whole, on cells; also called CHO-K1/cyno CD47; CHO-K1/cynoCD47
Description: (§1) Briefly, binding to cell-expressed cyno CD47 was evaluated on cynomolgus monkey CD47 over-expressing CHO cells. Anti-CD47 antibody dilution series was prepared in FACS buffer. CHO-K1/cynomolgus monkey CD47 cell were transferred to a 96-well U-bottom plate and add CD47 antibody dilution. After 30 minutes incubation at 4° C., cells were washed twice with FACS buffer. […] The cells were washed twice with wash buffer, and then analyzed for binding by using FACSCalibur (BD Bioscience, San Jose, Calif.) and Flowjo software.

[3] = target: T2, cynomolgus monkey CD47 on CHO-K1 cells; assay: as above; remark: listed apart in the source
Description: as §1

human CD47 on cells [4] = target: T1, human CD47 on cells; assay: flow cytometry, blocking of human SIRPα binding to CHO-K1/huCD47 cells; the box on the sheet is labelled EC50; unit taken from the axis
Description: After 30 minutes incubation at 4° C., cells were washed twice with FACS buffer.

human CD47 on cells [5] = target: T1, human CD47 on cells; assay: flow cytometry on red blood cells; unit taken from the axis
human CD47 on cells [6] = target: T1, human CD47 on cells; assay: flow cytometry on CHO-K1/huCD47 cells (FL2-H channel); unit taken from the axis
human CD47 on cells [7] = target: T1, human CD47 on cells; assay: flow cytometry, blocking of human SIRPα binding to CHO-K1/huCD47 cells; B6H12 is the positive control
human CD47 on cells [8] = target: T1, human CD47 on cells; assay: flow cytometry, blocking of human SIRPα binding to CHO-K1/huCD47 cells; the box on the sheet is labelled EC50; unit taken from the axis; remark: listed apart in the source
human CD47 on cells [9] = target: T1, human CD47 on cells; assay: flow cytometry on red blood cells
human CD47 on cells [10] = target: T1, human CD47 on cells; assay: flow cytometry on CHO-K1/huCD47 cells; unit taken from the axis
Description: (§2) Binding to cell-expressed human CD47 was evaluated on human CD47 over-expressing CHO cells (GenScript, Cat #M00581). Anti-CD47 antibody dilution series was prepared in FACS buffer. CHO-K1/human CD47 cells were transferred to a 96-well U-bottom plate and anti-CD47 antibody dilution was added. […] The cells were then washed twice with wash buffer. Cells were analyzed for binding by FACSCalibur (BD Bioscience, San Jose, Calif.) and Flowjo software.

[11] = target: T2, cynomolgus monkey CD47 on CHO-K1 cells; assay: flow cytometry on CHO-K1/cynoCD47 cells; unit taken from the axis
Description: as §1

[12] = target: T2, cynomolgus monkey CD47 on CHO-K1 cells; assay: flow cytometry on CHO-K1/cyno CD47 cells
Description: as §1

human CD47 on cells [13] = target: T1, human CD47 on cells; assay: flow cytometry on human red blood cells; unit taken from the axis
human CD47 on cells [14] = target: T1, human CD47 on cells; assay: flow cytometry on CHO-K1/huCD47 cells; x axis Log(nM), unit taken from the axis
Description: as §2

CD47 protein = target: T3, CD47 protein; assay: ELISA on CD47 protein; x axis is log10 of mAb (ng/ml), unit taken from the axis
T3 construct: also called CD47 (ELISA antigen); not shown: The carrier of the coated recombinant protein (an Fc tag as in CD47-Fc, or a His tag as in CD47-His)

human CD47-His protein = target: T4, human CD47-His protein (human, UniProt Q08722 19-139, limits assumed); assay: SPR (Biacore T200), antibody captured, human CD47-His as analyte, 1:1 model
T4 construct: It includes the signal peptide and the membrane-spanning region, which a soluble protein would lack; not shown: His tag

human CD47 on cells [15] = target: T1, human CD47 on cells; assay: flow cytometry, blocking of human SIRPα binding to CHO-K1/huCD47 cells

| EC50 [2] [nM] | EC50 [3] [nM] | IC50 (human CD47 on cells [4]) [nM] | EC50 (human CD47 on cells [5]) [nM] | IC50 (human CD47 on cells [8]) [nM] | EC50 (human CD47 on cells [10]) [nM] | EC50 [11] [nM] | Binder | also measured |
| --- | --- | --- | --- | --- | --- | --- | --- | --- |
| 0.931 | 0.931 | 1.08 |  |  |  |  | 107F11F10 (antibody, V domains shown, purified murine anti-CD47 hybridoma antibody; same VH and VL as 107F11B11 and 107F11C4) VH: EVQLQQSGAEFVKPGASVKLSCTASGFNIEDTYMHWVKQRPEQGLEWIGMIDPANGKTKYGPRFQDKATVTADTSSNTANLQLSSLTSEDTAVYYCADGIGYYVGAMDYWGQGTSVTVSS VL: DIQMNQSPSSLSASLGDTITITCHASQNINVWLSWYQQKPGNIPKLLIYKASNLHTGVPSRFSGSGSGTGFTLTISSLQPEDIATYYCQQGHSYPYTFGGGTKLEIK | EC50 (read off the curve) (human CD47 on cells [1]): ~10 ng/mL |
| 13.3 | 13.3 |  | 7.74 | 5.4 |  |  | B6H12 (antibody, V domains shown) VH: EVQLVESGGDLVKPGGSLKLSCAASGFTFSGYGMSWVRQTPDKRLEWVATITSGGTYTYYPDSVKGRFTISRDNAKNTLYLQIDSLKSEDTAIYFCARSLAGNAMDYWGQGTSVTVSS VL: DIVMTQSPATLSVTPGDRVSLSCRASQTISDYLHWYQQKSHESPRLLIKFASQSISGIPSRFSGSGSGSDFTLSINSVEPEDVGVYYCQNGHGFPRTFGGGTKLEIK | EC50 (human CD47 on cells [6]): 2.31 nM; IC50 (read off the curve) (human CD47 on cells [7]): ~6 nM |
|  |  |  |  | 1.42 | 0.551 | 0.491 | 108C10A6_Chimeric hIgG1 (antibody, V domains shown, also called CD47-108C10A6_Chimeric huIgG1; chimeric 108C10A6) VH: QMQLQQSGPQLVRPGASVKISCKTSGYSFTHHWIHWMKQRPGQGLEWIGMIDPSDSETRLSQKFKDKATLTVDASSSTAYMQLNSPTSEDSALYFCARLGRYYFDYWGQGTTLTVSS VL: NIVMTQSPRSMSMSVGERVTLSCKASENVGTYISWYQQKPDQSPKLLIYGASNRYTGVPDRFTGSGSGTDFTLTISTVQAEDLADYHCGESYGHLYTFGGGTKLEIKR | EC50 (read off the curve) (human CD47 on cells [9]): ~3 nM |
|  |  | 3.74 |  |  |  |  | 98E2E12 (antibody, V domains shown, purified murine anti-CD47 hybridoma antibody; same VH and VL as 98E2E7; also called 04-98E2E12) VH: QVQLQQSGPQLVRPGASVKISCKASGYSFTNHWMHWMKQRPGQGLEWIGMIDPSDSETRLNQQFKDKATLTVDKSSSTAYMQLSSPTSEDSAVFYCARLGRYYFDYWGQGTTLTVSS VL: NIVMTQSPKSMSVSVGERVTLSCRASDIVGTYVSWYQQKPEQSPKLLIYGASNRYTGVPDRFTGSRSATDFSLTISNVQAEDLADYLCGQSYDSPYTFGGGTKLEIK | EC50 (read off the curve) [12]: ~2 nM; EC50 (human CD47 on cells [13]): 9.63 ng/mL; EC50 (human CD47 on cells [14]): 8.21 nM; EC50 (CD47 protein): 2.59 ng/mL |
|  |  |  | 3.18 |  | 0.586 | 0.477 | 108VH4.M4_VL1.M1-hIgG4PE (antibody, also called 108VH4.M4_VL1.M1-hlgG4PE; 108VH4.M4_VL1.M1-hIgG4PE-Ka) heavy: not shown light: EIVLTQSPATLSLSPGERATLSCRASENVGTYISWYQQKPGQAPRLLIYGASNRYTGIPARFSGSGSGTDFTLTISSLEPEDFAVYYCGESYGHLYTFGGGTKVEIKRTVAAPSVFIFPPSDEQLKSGTASVVCLLNNFYPREAKVQWKVDNALQSGNSQESVTEQDSKDSTYSLSSTLTLSKADYEKHKVYACEVTHQGLSSPVTKSFNRGEC | Kd (human CD47-His protein): 1.5 nM; koff (human CD47-His protein): 0.00046 s⁻¹; kon (human CD47-His protein): 310000 M⁻¹ s⁻¹; IC50 (read off the curve) (human CD47 on cells [15]): ~1 nM |
